Measurements published in patent US20220033454A1 (ANWITA BIOSCIENCES, published 2022).

T1: endogenous IL-22 receptor on AsPC-1 cells (UniProt Q8N6P7 16-574, limits assumed)
T1 sequence (looked up): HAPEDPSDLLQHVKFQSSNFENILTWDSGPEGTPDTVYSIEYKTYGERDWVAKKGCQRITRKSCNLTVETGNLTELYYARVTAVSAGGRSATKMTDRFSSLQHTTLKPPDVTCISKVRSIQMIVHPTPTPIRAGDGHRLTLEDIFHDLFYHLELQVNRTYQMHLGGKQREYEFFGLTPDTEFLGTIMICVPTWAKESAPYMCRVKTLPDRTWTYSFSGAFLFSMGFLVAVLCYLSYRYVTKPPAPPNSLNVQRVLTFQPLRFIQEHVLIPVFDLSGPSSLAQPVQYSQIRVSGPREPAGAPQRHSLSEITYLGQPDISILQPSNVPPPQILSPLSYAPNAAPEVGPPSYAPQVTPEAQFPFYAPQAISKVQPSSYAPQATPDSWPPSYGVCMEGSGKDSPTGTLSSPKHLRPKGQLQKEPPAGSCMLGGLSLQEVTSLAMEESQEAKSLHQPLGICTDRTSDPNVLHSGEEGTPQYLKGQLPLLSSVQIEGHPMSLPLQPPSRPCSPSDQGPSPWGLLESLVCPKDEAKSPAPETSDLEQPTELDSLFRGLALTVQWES

T2: mIL22RA1-Fc fusion protein (mouse, UniProt Q80XZ4 16-230, limits assumed)
T2 construct: also called mouse IL-22Ra 1; IL-22Rα-1; not shown: Fc part
T2 sequence (looked up): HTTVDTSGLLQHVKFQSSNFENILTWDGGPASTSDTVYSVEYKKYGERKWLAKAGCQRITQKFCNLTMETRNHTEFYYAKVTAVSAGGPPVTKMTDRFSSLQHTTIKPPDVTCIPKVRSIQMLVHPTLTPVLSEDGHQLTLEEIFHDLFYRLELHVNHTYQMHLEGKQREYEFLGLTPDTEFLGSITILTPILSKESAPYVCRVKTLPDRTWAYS

B1: hIL-22-anti-HSA A1 (other)
chain: APISSHCRLDKSNFQQPYITNRTFMLAKEASLADNNTDVRLIGEKLFHGVSMSERCYLMKQVLNFTLEEVLFPQSDRFQPYMQEVVPFLARLSNRLSTCHIEGDDLHIQRNVQKLKDTVKKLGESGEIKAIGELDLLFMSLRNACISGGGGSGGGGSGGGGSEVQLVESGGGLVQPGGSLRLSCAASGSTWSINTLAWYRQAPGKQRDLVARISSGGSTYYADSVKGRFTISRDNSKNTLYLQMNSLRAEDTAVYYCYAQSTWYPPSWGQGTLVTVSS
notes: Single-chain fusion of IL-22 and an anti-HSA VHH, expressed in ExpiCHO cells; also called fusion protein A1
B2: mIL-22-anti-HSA-mIL-22 A9 (other)
chain: LPVNTRCKLEVSNFQQPYIVNRTFMLAKEASLADNNTDVRLIGEKLFRGVSAKDQCYLMKQVLNFTLEDVLLPQSDRFQPYMQEVVPFLTKLSNQLSSCHISGDDQNIQKNVRRLKETVKKLGESGEIKAIGELDLLFMSLRNACVSGGGGSGGGGSGGGGSQVQLVESGGGVVQPGGSLRLSCAASGFAFRGFGMSWVRQAPGKGLEWVSSINNGGSDTYYADSVKGRFTISRDNSKNTLYLQMNSLRAEDTAVYYCAIGGPGASPSGQGTQVTVSSGGGSGGGSGGGSGGGSLPVNTRCKLEVSNFQQPYIVNRTFMLAKEASLADNNTDVRLIGEKLFRGVSAKDQCYLMKQVLNFTLEDVLLPQSDRFQPYMQEVVPFLTKLSNQLSSCHISGDDQNIQKNVRRLKETVKKLGESGEIKAIGELDLLFMSLRNACV
notes: Single-chain fusion with two IL-22 domains, expressed in ExpiCHO cells
B3: mIL-22-anti-HSA A2 (other)
chain: LPVNTRCKLEVSNFQQPYIVNRTFMLAKEASLADNNTDVRLIGEKLFRGVSAKDQCYLMKQVLNFTLEDVLLPQSDRFQPYMQEVVPFLTKLSNQLSSCHISGDDQNIQKNVRRLKETVKKLGESGEIKAIGELDLLFMSLRNACVSGGGGSGGGGSGGGGSEVQLVESGGGLVQPGGSLRLSCAASGSTWSINTLAWYRQAPGKQRDLVARISSGGSTYYADSVKGRFTISRDNSKNTLYLQMNSLRAEDTAVYYCYAQSTWYPPSWGQGTLVTVSS
notes: Single-chain fusion, expressed in ExpiCHO cells; also called fusion protein A2
B4: mIL-22-hIgG1 Fc B1 (Fc fusion)
chain: LPVNTRCKLEVSNFQQPYIVNRTFMLAKEASLADNNTDVRLIGEKLFRGVSAKDQCYLMKQVLNFTLEDVLLPQSDRFQPYMQEVVPFLTKLSNQLSSCHISGDDQNIQKNVRRLKETVKKLGESGEIKAIGELDLLFMSLRNACVARGPTIKPCPPCKCPAPNLLGGPSVFIFPPKIKDVLMISLSPIVTCVVVDVSEDDPDVQISWFVNNVEVHTAQTQTHREDYNSTLRVVSALPIQHQDWMSGKEFKCKVNNKDLPAPIERTISKPKGSVRAPQVYVLPPPEEEMTKKQVTLTCMVTDFMPEDIYVEWTNNGKTELNYKNTEPVLDSDGSYFMYSKLRVEKKNWVERNSYSCSVVHEGLHNHHTTKSFSRTPGK
B5: Anti-HSA-mIL-22 A3 (other)
chain: QVQLVESGGGVVQPGGSLRLSCAASGFAFRGFGMSWVRQAPGKGLEWVSSINNGGSDTYYADSVKGRFTISRDNSKNTLYLQMNSLRAEDTAVYYCAIGGPGASPSGQGTQVTVSSGGGSGGGSGGGSGGGSLPVNTRCKLEVSNFQQPYIVNRTFMLAKEASLADNNTDVRLIGEKLFRGVSAKDQCYLMKQVLNFTLEDVLLPQSDRFQPYMQEVVPFLTKLSNQLSSCHISGDDQNIQKNVRRLKETVKKLGESGEIKAIGELDLLFMSLRNACV
notes: Single-chain fusion, expressed in ExpiCHO cells
B6: mIL-22-anti-HSA-mIL-22 A8 (other)
chain: LPVNTRCKLEVSNFQQPYIVNRTFMLAKEASLADNNTDVRLIGEKLFRGVSAKDQCYLMKQVLNFTLEDVLLPQSDRFQPYMQEVVPFLTKLSNQLSSCHISGDDQNIQKNVRRLKETVKKLGESGEIKAIGELDLLFMSLRNACVSGGGGSGGGGSGGGGSEVQLVESGGGLVQPGGSLRLSCAASGSTWSINTLAWYRQAPGKQRDLVARISSGGSTYYADSVKGRFTISRDNSKNTLYLQMNSLRAEDTAVYYCYAQSTWYPPSWGQGTLVTVSSGGGSGGGSGGGSGGGSLPVNTRCKLEVSNFQQPYIVNRTFMLAKEASLADNNTDVRLIGEKLFRGVSAKDQCYLMKQVLNFTLEDVLLPQSDRFQPYMQEVVPFLTKLSNQLSSCHISGDDQNIQKNVRRLKETVKKLGESGEIKAIGELDLLFMSLRNACV
notes: Single-chain fusion with two IL-22 domains, expressed in ExpiCHO cells; also called fusion protein A8
B7: mIL-22-anti-HSA A4 (other)
chain: LPVNTRCKLEVSNFQQPYIVNRTFMLAKEASLADNNTDVRLIGEKLFRGVSAKDQCYLMKQVLNFTLEDVLLPQSDRFQPYMQEVVPFLTKLSNQLSSCHISGDDQNIQKNVRRLKETVKKLGESGEIKAIGELDLLFMSLRNACVSGGGGSGGGGSGGGGSQVQLVESGGGVVQPGGSLRLSCAASGFAFRGFGMSWVRQAPGKGLEWVSSINNGGSDTYYADSVKGRFTISRDNSKNTLYLQMNSLRAEDTAVYYCAIGGPGASPSGQGTQVTVSS
notes: as for B5

Tests used:
[1] = target: endogenous IL-22 receptor on AsPC-1 cells (UniProt Q8N6P7); experiment: cell-based or functional assay
[2] = target: T1, endogenous IL-22 receptor on AsPC-1 …; experiment: cell-based or functional assay
[3] = target: T2, mIL22RA1-Fc fusion protein; experiment: BLI (Octet RED96); mIL22RA1-Fc captured on AHC biosensor, fusion protein in solution at 400 nM, global fit
Experimental: OCTET® RED96 was used to characterize the interactions of an IL-22 fusion protein with a mouse IL-22Ra 1 (mIL22RA1). Briefly, an mIL22RA1-Fc fusion protein was loaded onto an anti-human IgG Fc capture (AHC) biosensor. The biosensor was then dipped into a solution containing the IL-22 fusion protein at 400 nM. Primary experimental data was analyzed with global fitting to determine a dissociation constant (Kd).

Molecule	EC50 of STAT3 phosphorylation (phospho-STAT3 Tyr705 HTRF) in AsPC-1 cells [1]	EC50 of STAT3 phosphorylation (phospho-STAT3 Tyr705 HTRF) in AsPC-1 cells [2]	Kd [3]
recombinant human IL-22 (from UniProt Q9GZX6 34-179) (ligand)	90 nM	–	–
B1	–	800 nM	300 nM
B2	–	500 nM	0.77 nM
B3	–	700 nM	61 nM
B4	–	–	1.4 nM
B5	–	500 nM	30 nM
B6	–	500 nM	1.2 nM
B7	–	600 nM	67 nM
